Usually koff stands for a measure of how fast the partners let go of each other. Low values mean slow dissociation, high ones fast dissociation. By Kd is commonly meant the concentration at which binding is half-saturated. Higher therefore signals lower affinity.

The record followed here is PMC12579213 (2025).

Common to all, as to assay: BLI
Test [1] concerns the target T1, GST-tagged RhoA (Q63L) (UniProt P61586 1-193, Q63L).
In test [2] the target is T2, GST-tagged Rac1F37W (Q61L) (UniProt P63000 1-192, F37W | Q61L).
Test [3] has as its target T3, GST-tagged Rac1 (Q61L) (UniProt P63000 1-192, Q61L).
Test [4] addresses T1, GST-tagged RhoA (Q63L). This is another data set of the same source.
In test [5] the target is T2, GST-tagged Rac1F37W (Q61L). This is another data set of the same source.
Test [6] has as its target T3, GST-tagged Rac1 (Q61L). This is another data set of the same source.

B1: 6xHis-tagged RBD_(ROCK1) (domain or fragment)
chain: KDHTVSRLEEANSMLTKDIEILRRENEELTEKMKKAEEEYKLEKEEEISNLKAAFEKNINTERTLKTQAVNKLAEIMNRKDF
In the case of B1, the off-rate (koff) was 0.000699 s⁻¹ in test [1], 0.00474 s⁻¹ in test [2] and 0.00156 s⁻¹ in test [3]. Further, the Kd was determined as 31 nM in test [4], 179 nM in test [5] and 56 nM in test [6].
